Source: the DeepSol protein solubility set

Experiment: soluble on expression in E. coli; label from the status in PepcDB or PDB records

Row | Sequence | soluble on expression in E. coli
1 | MSHTSNFTRNFHCRSSSNKRSESEKSPSFSKKRRRARALDPDEFIPPVEGPDVQKIDSETSRKCHSIKGFNVNKDGSVRRLEDNSKYEHNKSSRQKRSEAAPLENSEGKSTKSRKLSSPSKKSNKKSISKKSDRSKVSKVKRSPKTDKELEKKPSSIYERKDVDGHDDLKVPNMRSRKHSENSKNLFDYFFWFSLQTSKMKSLNYIEMLSNGDIKAPISAVFCPTRGSSTAPNCFAIIGVWRRRKKRSVSKLIKIGFSIPQSMEILTKKGQLFPNLITRQIPMEIRAVNFAHLHFSHRLVDFASGDDVLCDRIQHTIHVQS | not soluble
2 | MAHHHHHHMGFFKKNKRQSFNRNYEGEVQCNNIILGGTFYKHCENDLLLKNELENLVPYFNGRIFLENKEEIGKVDEILGPINEFYFSVKLKEGIRAKSFSSDTHFFIDKSQTLPLSRFLPQEKNSQSLVKKKKKKSNRDKKKNSFNQNNKKPNNYNFKGNNNRNDHNNRNDHNNRNDHNNRNDHNNRNDRNNRNNKNSFRNRSNSSRKFNNQRGRF | not soluble
3 | MQTWQLPEHIADVLPTNARQLESAREQLLALFRVHGYELVQPPLMEYAHSLLTHIDAGLSLKTILVTDRLSGRQLGIRADITPQVARIDAHLLSANQGINRLCYAGPVLHAQPDGLLNMREPLQAGAEMYGFADIRGDIELIDLMLKSMKIADMGKVLLSLGHIGIFRALSDAAHLDAGQSATLLALMQDKDTGAVEAQVKAWKLDGMWAKAFSLLPRLYGGREVLSDARGRLPDLSAVGGALGELQAVCDAFPDCEIHIDLSELRVDNYHTGLLYAAYAADFHDAVARGGRYDGLGGYFGRARPATGFSFDLRSFIGRLPAIERQPAVLVDAEDAEAAHEAVEALREQGQCVVIDYGIGHNVSEELAGRLKKTDGVWQVVKR | not soluble
4 | MSLDLGTTKYIIYAELIADGYVEKHDVIGAIFGQTEGLLGDELDLRELQKTGRVGRIDVELTNINGKSIAKITVPSSLDRIETSILAATLETIDRVGPCVATVKVIDIEDIRKKKREYIVERAKEILKQLMSNIDVNTIIEEVKESVRMGEIIEYGPERLPAGPAVDEGHHHHHH | soluble
5 | MRGSHHHHHHTDPALRASVRLVLAKGREKSLLRRHPWVFSGAVARMEGKASLGETIDIVDHQGKWLARGAYSPASQIRARVWTFDPSESIDIAFFSRRLQQAQKWRDWLAQKDGLDSYRLIAGESDGLPGITIDRFGNFLVLQLLSAGAEYQRAALISALQTLYPECSIYDRSDVAVRKKEGMELTQGPVTGELPPALLPIEEHGMKLLVDIQHGHKTGYYLDQRDSRLATRRYVENKRVLNCFSYTGGFAVSALMGGCSQVVSVDTSQEALDIARQNVELNKLDLSKAEFVRDDVFKLLRTYRDRGEKFDVIVMDPPKFVENKSQLMGACRGYKDINMLAIQLLNEGGILLTFSCSGLMTSDLFQKIIADAAIDAGRDVQFIEQFRQAADHPVIATYPEGLYLKGFACRVMGLCGR | soluble
6 | NFNSQNGVNKDEKDHLIERLYREISGLKAQLENMKTESQRVVLQLKGHVSELEADLAEQQHLRQQAADDCEFLRAELDELRRQREDTEKAQRSLSEIERKAQANEQRYSKLKEKYSELVQ | soluble
7 | MTARVIALDLDGTLLTPHKTLLPSSLEALSRAKEAGFQLIIVTGRHHVAIHPFYQALALETPAICCNGTYLYDYQAKTVLDADPMPVDKALQLIDLLDEHQIHGLMYVDDAMLYEHPTGHVVRTSRWAQTLPPEQRPTFTQVSSLAQAARDVNAVWKFALTDEDIPRLQRFGQHVEQALGLECEWSWHDQVDIARKGNSKGKRLTQWIEAQGGSMKNVIAFGDNYNDISMLEAAGTGVAMGNADEAVKARADVVIGDNTTDSIAKFIYTHLL | not soluble
8 | MSLRKPPLHMLPLGGCGEIGMNFTLYGHQDHWIVVDCGMMIRQDLPQAPLQVPNVDMLASQNIVPRAIVVTHGHEDHIGAIAWLWPRWQCPVHATPLAAGLLRLRFAEQQLPTSAIQVITPGDAMESGPFDIRFLPLPHSIPESCALLLTTPQHRILHTGDWKLDPEPLIGKPASPQRFQALAPVDLVVGDSTNAPVPGHSRSEGEVARALETTIGACPGRVIVSCFASNLARILALGRAAHACGRRVSLMGRSMERMVGVARGLGYLEDFPPLVPVRDLGYLPPEEVLVIATGSQGEPRAALSRLAQGRHADFELHPGDSVIFSAKAIPGNELLIERLQAGLKRAKVTIFDERSHPELHASGHPAQAELRRFYEWVKPRRLLPVHGEQQHQQAHRALAESLGIEVPWIPRNGDMLRLDAEGLHCESRHSLAPHIVTQNRIHPLEGLRAPEASSMHRRSGILSLTLPVVRQSTGWVRIGRLLWDTSHDLPLDDVALADWVDEQLAGHDADTIVTLRQRLHGPLMHWLGDHLRHLPDVHLHIMAAEGDTVYDAEGHHHHHH | soluble
9 | GPLGSGALKWVLCNYDFQARNSSELSVKQRDVLEVLDDSRKWWKVRDPAGQEGYVPYNILTPYPAAAS | soluble
10 | GTDGTKPECTLCGVKYSARLSIRDHIFSKQHISKVRETVGSQLDREKD | soluble
11 | MAHHHHHHMCLSNLSYFFGAFEAVEPARSENDGGYASDWLSTLYSSLGLVLAHYLFEDNVEATVEATRILGNISYTNAGRDWMEANHCDEVTVLFLGHEDLRVVYNCCGVLLNLTAASPCRVVQDPELLQTMLSYTSRYTDQDRVEAVTALEEARLRQEQQELQQQRRGGDMKELVSEASSHVAQISDIVEKLLLNVHGVLHASAI | not soluble
12 | MMTMWVFGYGSLMWNPGFPVARRELATLSGWSRSFCMSSIHHRGTEEKPGLVLALDAVHNARCRGIAFAVEPGHEARTLDELRERELISSAYLERELEIDLDIGERVCAVTYVIDPHHEQYCGGMPLERQAQIIATAIGGRGPNTEYLYNTAAHLAEIGLGDPDLDWLSARVREITSLEHHHHHH | soluble
13 | MKAEYLQRFGGIARLYGQSALRSFSQAKVCVVGIGGVGSWAAEALARAGINQITLIDMDDICITNTNRQIHAMQGTVGRLKTEVMAERIRAINPDCEVIEVDDFVTADNLAEHIKREFDYVVDAIDSVKAKVALIAFCKRNKIPVIVAGGAGGQMDPTQITVADLAKTIQDPLAAKVRSDLRRLHNFSKNPARKFGVECVFSTEQLSYPDGNGGTCQAKAASDGNMKMDCASGFGAVTPVTATFGLVAASRVLKKIAERGARAEKEAGNEEAGSIGEA | soluble
14 | MGSDKIHHHHHHMNVPKAGKVICAGLGPGDPELMSVKSWRALQGATHVAYFRKAGRAGQARAIVEGLLPAGVTEYPMEYPVTTEIHFSDPEYNRQLAAFYDQWADTLAEIAATQTVVVLCEGDPFLYGSFMHLHTRLEGRAEVEIIPGITGMSGCWTATGQPITWGDDVLTVAMATLSEDELTQRIRQTDALVVMKIGRNLPKLRRALEAAGRLQDAWLVERGTMPAQTVQKLTDVDGEVPYFSIVILHGEGRRP | not soluble
15 | LPENGPEFKIEISLLKDQARVMIDTTGPSLFKRGYRTEKGGAPIKENMAAAIILLSNWFPDKPFVDPTCGSGTFCIEAAMIGMNIAPGFNRDFAFEEWPWVDEALVTRVRNEADEQADYDIQLDISGFDFDGRMVEIARKNAREVGLEDVVKLKQMRLQDFKTNKINGVLISNPPYGERLLDDKAVDILYNEMGETFAPLKTWSQFILTNDTDFEQKFGRKADKKRKLYNGSLKVDLYQFYGQRVKRVLR | not soluble
16 | TPQSITRKVARYIPGTVEHLQEQQQYARKIRDVTAQKVDQFSNVFHALSESFATFYQASDEQTDDSEVDLFLSKITEHSCQTCYKKNRCWVQNFDKTYDLMKQVMLETEEKEYASNRRLKKEFQQYCSKSKQVEELIEDELAHHHAHLTLKKKVQDSRRLVAEQLLGVSEVMADFSREIKREREQHFLQEEQIIEALQHFGIEIQHVEIYSLEQGNIDIEMTIPFSGHGESEKIIAPMLSDILEEQILVKAEQHSPHPNGYSHVAFGSTKSYRVSTGAAHAAKGGGLVSGDSYSMMELGARKYAAAISDGMGNGARAHFESNETIKLLEKILESGIDEKIAIKTINSILSLRTTDEIYSTLDLSIIDLQDASCKFLKVGSTPSFIKRGDQVMKVQASNLPIGIINEFDVEVVSEQLKAGDLLIMMSDGIFEGPKHVENHDLWMKRKMKGLKTNDPQEIADLLMEEVIRTRSGQIEDDMTVVVVRIDHNTPKWASIPVPAIFQNKQEI | not soluble
